Data as given in patent US20250092140A1 (published 2025).
Each block holds one binder with its values, some of them ahead of it.

Assays:
human-NKP30-His = target: T1, human-NKP30-His (human, UniProt O14931 19-138); experiment: ELISA
T1 chain: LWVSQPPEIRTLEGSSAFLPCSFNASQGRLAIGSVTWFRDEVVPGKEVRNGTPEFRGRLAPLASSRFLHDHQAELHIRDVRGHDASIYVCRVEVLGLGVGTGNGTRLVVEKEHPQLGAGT

HuB7H3-Fc = target: T2, HuB7H3-Fc (human, UniProt Q5ZPR3 29-245); experiment: sandwich ELISA; dual binding, HuB7H3-Fc coated, NKP30-his detected
T2 chain: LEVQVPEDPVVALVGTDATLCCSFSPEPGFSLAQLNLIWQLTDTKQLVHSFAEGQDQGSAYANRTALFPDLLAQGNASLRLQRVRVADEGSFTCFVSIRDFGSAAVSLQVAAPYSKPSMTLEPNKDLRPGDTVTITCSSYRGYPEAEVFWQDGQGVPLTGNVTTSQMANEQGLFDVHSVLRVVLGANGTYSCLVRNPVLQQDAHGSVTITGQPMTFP

HuB7H3-his = target: T3, HuB7H3-his (human, UniProt Q5ZPR3 29-245); experiment: ELISA
T3 chain: T2 chain

EC50 (human-NKP30-His): 0.00258 µg/mL
B1: NKP30 monoclonal antibody (antibody, V domains shown)
VH: EVQLVESGGGLVQPGGSLRLSCAASGITFSRSVMGWFRQAPGKLRELVAGITSDDNTDYADSVKGRFTISRDNSKNTLYLQMNSLRAEDTAVYYCNILPDSRLGWGQGTLVTVSS

EC50 (HuB7H3-Fc): 0.445 µg/mL
B2: constructed antibody D28 (bispecific antibody)
heavy: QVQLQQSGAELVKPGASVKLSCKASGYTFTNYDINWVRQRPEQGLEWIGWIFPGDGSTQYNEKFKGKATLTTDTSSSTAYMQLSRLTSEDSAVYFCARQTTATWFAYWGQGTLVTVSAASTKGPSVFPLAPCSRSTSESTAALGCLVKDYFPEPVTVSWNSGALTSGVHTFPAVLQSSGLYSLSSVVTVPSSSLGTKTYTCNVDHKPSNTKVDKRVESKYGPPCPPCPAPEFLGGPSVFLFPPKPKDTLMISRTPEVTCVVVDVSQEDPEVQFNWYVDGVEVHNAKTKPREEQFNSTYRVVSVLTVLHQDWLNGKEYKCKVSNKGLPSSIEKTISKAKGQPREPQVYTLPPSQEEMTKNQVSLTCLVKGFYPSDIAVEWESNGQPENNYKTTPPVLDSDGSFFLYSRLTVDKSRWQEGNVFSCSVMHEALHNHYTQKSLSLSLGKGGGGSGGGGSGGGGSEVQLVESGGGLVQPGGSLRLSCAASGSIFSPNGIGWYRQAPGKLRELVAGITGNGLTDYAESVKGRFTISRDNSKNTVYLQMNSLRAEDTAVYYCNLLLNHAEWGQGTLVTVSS
light: DIVMTQSPATLSVTPGDRVSLSCRASQSISDYLHWYQQKSHESPRLLIKYASQSISGIPSRFSGSGSGSDFTLSINSVEPEDVGVYYCQNGHSFPLTFGAGTKLELKRTVAAPSVFIFPPSDEQLKSGTASVVCLLNNFYPREAKVQWKVDNALQSGNSQESVTEQDSKDSTYSLSSTLTLSKADYEKHKVYACEVTHQGLSSPVTKSFNRGEC

EC50 (human-NKP30-His): 0.00817 µg/mL | EC50 (HuB7H3-Fc): 0.19 µg/mL | EC50 (HuB7H3-his): 0.0526 µg/mL
B3: constructed antibody A25 (bispecific antibody)
heavy: not shown
light: B2 light
